B1: HDV Ribozyme (parent)
chain: GGCCGGCAUGGUCCCAGCCUCCUCGCUGGCGCCGGCUGGGCAACAUUCCGAGGGGACCGUCCCCUCGGUAAUGGCGAAUGGGACCCA

The variants in this series derive from B1. As to the kind of experiment: self-cleavage, relative activity (ratio to wild type); higher = more cleavage; co-transcriptional.
On to GGCCGGCAGGGUCCCAGCCUCCUCGCUGGCGCCGGCUGGGCAACAUUCCGAGGGCACCGUCCCCUCGGUAAUGGCGAAUGGGACCCA, for which the self-cleavage is 0.665. As for GGCCGGCAUGGUACCAGCCUCCUCGCUGGCGCCGGCUGGGCAACAUUCCAAGGGGACCGUCCCCUCGGUAAUGGCGAAUGGGACCCA, the figure is 0.295. The same measure for GGCCGGCAUGGUCCCAGCCUCCUCGCUGGCGCCGGCUGGGCAAGAUUCCGAGGGGACCCUCCCCUCGGUAAUGGCGAAUGGGACCCA: 0.95. As for GGCCGGCAUGGUCCCAGCCUCCUCGCUCGCGCCGGCUGGGCAACAUUCCGAGAGGACCGUCCCCUCGGUAAUGGCGAAUGGGACCCA, the self-cleavage turned out to be 0.0941. Consider GGCCGGCAUGGUCCCAGCCUCCUCGCUGGCGCUGGCUGGGCAACAUUCCGAGGGGACCGUCCCCUCGGUAAUGGCGAAGGGGACCCA, for which the self-cleavage worked out at 0.429.

In the case of GGCCGGCAUGGUCCCAGCCUCCUCGCUGGCGCCGGCUGGGCUACAUUCCGAGGGGACCGUCCCCUCGGUAAUGGCCAAUGGGACCCA, the self-cleavage was found to be 0.639. The same measure for GGCCGGCAUGGUCCCAGCCUCCUCGCUGGCGCCGGCUGGGCAACAGUCCGAGGGGACCGUCCCCUCGGUAAUGGCAAAUGGGACCCA: 0.911.

Regarding GGCCGGCAUGGUCCCAGCCUCCUCGCUGGCGCCGGCUGGGCAACAUUCCGAGGGGACCGUCCCCUCGGUAAUGGCUAAUGCGACCCA, the self-cleavage amounted to 0.628. Take GGCCGUCAUGCUCCCAGCCUCCUCGCUGGCGCCGGCUGGGCAACAUUCCGAGGGGACCGUCCCCUCGGUAAUGGCGAAUGGGACCCA: the self-cleavage worked out at 0.

With GGCCGGCAUGGUCCCAGCCUCCUCGCUGGCGCCGGCUGGGCAACAUUCCGAGCGGACCGUCCCCGCGGUAAUGGCGAAUGGGACCCA, the self-cleavage was 0.688. The same measure for GGCCGGCAUGGUCCCAGCCUCAUCGCUGGCGCCGGCUGGGCAACAUUCCGAGGGGACCGUCCCCUCGGUAAUGGCGCAUGGGACCCA: 0.0378; for GGCCGGCAUGGUCCCAGCCUCCUCGCUGGCGCCGGCUGGGCGACAUUCCGAGGGGACCGUCCCCUCGGUAAUGGCCAAUGGGACCCA: 0.672. As for GGCCGGCAUGGUCCCAGCCUCCUCGCUGGCGCCGGCUGGGCACCAUUCCGAGGGGACGGUCCCCUCGGUAAUGGCGAAUGGGACCCA, the figure is 0.443; as for GGCCGGCAUGCUCCCAGCCUCCUGGCUGGCGCCGGCUGGGCAACAUUCCGAGGGGACCGUCCCCUCGGUAAUGGCGAAUGGGACCCA, 0.0583; as for GGCCGGCAUGGUCCUAGCCUCCUCGCUGGCGCCGGCUGGGCAACAUUUCGAGGGGACCGUCCCCUCGGUAAUGGCGAAUGGGACCCA, 0.852. The same measure for GGCCGGCAUGGUCCCAACCUCCUCGCUGGCGCCGGCUGGGCAACAUUCCGAGGGGGCCGUCCCCUCGGUAAUGGCGAAUGGGACCCA: 0.59; for GGCCGGCAUGGUCCCAGCCUCCUCGCUGGCGCCGGCUGGGCAACAUUCCGAGGGGACCGUCCCCCCGGUAAUGGCGAAUGAGACCCA: 0.358. GGCCGGCAUGGUUCCGGCCUCCUCGCUGGCGCCGGCUGGGCAACAUUCCGAGGGGACCGUCCCCUCGGUAAUGGCGAAUGGGACCCA: the self-cleavage came out at 0.978. As for GGCCGGCAUGGUCUCAGCCUCCUCGCUGGCGCCGGCUGGGCAACAUUCCGAGGGGACCGUCCCCUAGGUAAUGGCGAAUGGGACCCA, the figure is 0.877. As for GGCCGGCAUGGUCCCAGCCUCCUCGAUGGCGCCGGCUGGGCAACAUUCCGAGGGGGCCGUCCCCUCGGUAAUGGCGAAUGGGACCCA, the figure is 0.957. For the variant GGCCGGCAUGGUCCCAGCCUCCUCGCUGGCGCCGGCUGGGCAACAUUCCGAGGGGACCGUCCCCUAGGUUAUGGCGAAUGGGACCCA, the self-cleavage was 1.08. As for GGCCGGAAUGGUCCCAGCCUCCUCGCUGGCGCCCGCUGGGCAACAUUCCGAGGGGACCGUCCCCUCGGUAAUGGCGAAUGGGACCCA, the figure is 0; as for GGCCGGCAUGGUCCCAGCCUCCUCGCUGCCGCCGGCUGGGCAACAUUCCGAGGGGACCGUCCCCUCGGUAAUGGCGAAGGGGACCCA, 0; as for GGCCGGCAUGGUCCCAGCCUCCUCGCUGGCGCCGGCUGGGCAACAUUCCGAGGGUACCGUCCCCUCGGUAAUGGCGGAUGGGACCCA, 0.607. Consider GGCCAGCAUGGUCCCAGCCUCCUCGCUGGCGCCGGCUGGGCAACAUUCCGAGGGGACCGUCCCCUCGGUAAUGGCGAAUCGGACCCA, for which the self-cleavage came to 0.0563.

Take GGCCGGCAUGGUCCCAGCCUCCUCGCUGGCGCCGGCUGGGCAACAUUCCGAGGGGACCGUCUUCUCGGUAAUGGCGAAUGGGACCCA: the self-cleavage turned out to be 1.11.

On to GGCCGGCAUGGUACCAGCCUCCUCGCUGGCGCCGGCUGGGCAACAUCCCGAGGGGACCGUCCCCUCGGUAAUGGCGAAUGGGACCCA, for which the self-cleavage worked out at 0.277. As for GGCCGUCAUGGUCCCAGCCUCCUCGCUGGCGCGGGCUGGGCAACAUUCCGAGGGGACCGUCCCCUCGGUAAUGGCGAAUGGGACCCA, the self-cleavage came to 0.196. On to GGCCGGCAUGGUCCCAGCCUCCUCGCUGGUCCCGGCUGGGCAACAUUCCGAGGGGACCGUCCCCUCGGUAAUGGCGAAUGGGACCCA, for which the self-cleavage is 0.13.

As for GGCCGGCAUGGUCCCAGCCUCCUCGCUGGCCCCGGCUCGGCAACAUUCCGAGGGGACCGUCCCCUCGGUAAUGGCGAAUGGGACCCA, the self-cleavage was determined as 0.135. In the case of GGCCGGCAUGGUCCCAGCCUCCUCGCUGGCGCCGACUGGGCAACAUUCCGAGGGGACCGUCCCCUCGGUAAUGGCGAUUGGGACCCA, the self-cleavage came to 0.253. For GGCCGGCAUGGUCCCAUCCUCCUCGCUGGCGCCGGCUGGGCAACAUUCCGAGGGGACCGUCACCUCGGUAAUGGCGAAUGGGACCCA, the self-cleavage is 0.429. Take GGCCGUCAUGGUCCCAGCCUCCUCGCUGGCGCCGGCUGGGCAACAUUCCGAGGGGACCGUCCCUUCGGUAAUGGCGAAUGGGACCCA: the self-cleavage was determined as 0.723. Consider GGCUGGCAUGGUCCCAGCCUCCUCGCUGGUGCCGGCUGGGCAACAUUCCGAGGGGACCGUCCCCUCGGUAAUGGCGAAUGGGACCCA, for which the self-cleavage turned out to be 0.332. As for GGCCGGCAUGGUCCCAGCCUCCUCCCUGGCGCCGGCUGGGCUACAUUCCGAGGGGACCGUCCCCUCGGUAAUGGCGAAUGGGACCCA, the figure is 0; as for GGCCGGCAUGGUCCCAGCCUCCUCGCUGGCGCCGGCUGGGCAACACUCCGAGGGGACCGUCCCCUCGGUCAUGGCGAAUGGGACCCA, 0.795. The same measure for GGCGGGCAUGGUCCCAGCCUCCUCGCUGGCGCCGGCUGGGCAACAUUCCGAGGGGACCCUCCCCUCGGUAAUGGCGAAUGGGACCCA: 0.481; for GGCCGGCAUGGUCCCAGCCUACUCGCUGGCGCCGGCUGGGCAACACUCCGAGGGGACCGUCCCCUCGGUAAUGGCGAAUGGGACCCA: 0.0536.

As to CUCCGGCAUGGUCCCAGCCUCCUCGCUGGCGCCGGCUGGGCAACAUUCCGAGGGGACCGUCCCCUCGGUAAUGGCGAAUGGGACCCA, the self-cleavage was 0.256. The same measure for GGCCGGCAUGGUCCCAGCCUCCUCGCUGGCGCCGGCUGGGCAACAUUCCGAGGGGGCCGUCCCCUCGGUAAUGGCAAAUGGGACCCA: 0.96; for GGCCGGCAUGGUCCCAGCCUCCUCGCUGGCGCCGGCUGGGCAACAUUCCGAGAGGACCGUCCCCUCGGUAAUGGCGAAUGGGGCCCA: 0.802.

As to GGCCGGCAUGGUCCCAGCCUCCUCGCUGGCGCCGGCUGGGCAACAUUCCGAGGGGACCGUCCCCUCGGUAAUGCCCAAUGGGACCCA, the self-cleavage is 0.185. In the case of GGCCGGCAUGGUCCCAGCCUCCUCGCCGGCGCGGGCUGGGCAACAUUCCGAGGGGACCGUCCCCUCGGUAAUGGCGAAUGGGACCCA, the self-cleavage worked out at 0.237.

Turning to GGCCGGCAUGGUCCCAGCCUCCUCGCUGGCGCCGGCUAGGCAACAUUCCGAGGGGACCGUCCCCUCGGUAAUGGGGAAUGGGACCCA, the self-cleavage came to 0.0302.

Take GGCCGGCAUGGUCCCAGCCUCCUCGCUGGCGCCGGCUGGGCAACAUUCCGAGGGGACCGUCCCCUCGGUAAUCGCGAACGGGACCCA: the self-cleavage stood at 0.161.

GGCCGGCAUGGUCACAGCCUCCUCGCUGGCGUCGGCUGGGCAACAUUCCGAGGGGACCGUCCCCUCGGUAAUGGCGAAUGGGACCCA: the self-cleavage turned out to be 0.458. As for GGCCGGCAUGGUCCCAGCCUCCCCGCUUGCGCCGGCUGGGCAACAUUCCGAGGGGACCGUCCCCUCGGUAAUGGCGAAUGGGACCCA, the figure is 0.249. In the case of GGCCGGCAUGGUCCCAGCCUCCUCGCUGGCGCCGGCUGAGCAACAUUCCGAGGGGACCGUCCCCUCGGUAAUGGCGAAUGGGACCCU, the self-cleavage was found to be 0.531. As for GGCCGGCAUGGUCCCAGCCUCCUCGCUGGCGUCGGCUGGGCAACAUUCCGAGGGGACCGUCCCUUCGGUAAUGGCGAAUGGGACCCA, the figure is 0.831. As to GGCCGGCAUGGUCCCAGCCUCCUCGCUGGCGCCGGCUGGGCAACAUUCCGAGGGGACCAUCACCUCGGUAAUGGCGAAUGGGACCCA, the self-cleavage stood at 0.678. As for GGCCGGCAUGGUCCCAGCCUCCUCGCUGGCGCCGGCUCGGCAACAUUCCGAGGGGACCGUCCCCUCGGUAAUGGCGAAUGGGACCCU, the figure is 0.252. The same measure for GGCCGGCAUGGUCCCAGCCUCUUCGCUGGCGCCGGCUGGGCAACAUUCCGAGGGGACCGUCCCCUCGGUAAUGGCGAAAGGGACCCA: 0.0923. The same measure for GGCCGGCAUGGUCGCAGCCUCCUCGCUGGCGCCGGCUGGGCAACAUUCCGAGGGGACCGUCCCCUCGGUAAGGGCGAAUGGGACCCA: 0.312. For GGCCGGCAUGGUCCCAGCAUCCUCGCUGGCGCCGGCUGGGCAGCAUUCCGAGGGGACCGUCCCCUCGGUAAUGGCGAAUGGGACCCA, the self-cleavage came out at 0.0354. The same measure for GGGCGGCAUGGUCCCAGCCUCCUCGCUGGCGCGGGCUGGGCAACAUUCCGAGGGGACCGUCCCCUCGGUAAUGGCGAAUGGGACCCA: 0.128; for GGCCGGCAUGGUCACAGCCUCCUCGCUGGCGCCGGCUGGGCAACAUUCCGAGGGGACCGUCCCCUCGGUAAUGGCGAAUGGGCCCCA: 0.0755; for GGCCGGCGUGGUCCCAGCCUCCUCGCUGGCGCCGGCUGGGCAACAUUCCGAGGGGACCGUCCCCUCGGUAAUAGCGAAUGGGACCCA: 0.369. The same measure for GGCCGGCAUGGUCCCAGCCUCCUCGCUGGCGCCGGCUGGGGAAGAUUCCGAGGGGACCGUCCCCUCGGUAAUGGCGAAUGGGACCCA: 0.158; for GGCCGGCAUGGUCCCAGCCUCCUAGCUGGCGCCGGCUGGGCAACAUUCAGAGGGGACCGUCCCCUCGGUAAUGGCGAAUGGGACCCA: 0.65; for GGCCGGCAUGGUCCCAGCCUCCUCGCUUGCGCCGGCUGGGCAACAUUCCGAGGGGACCGUCCCCUCGGUAAUGGCGAAUGGUACCCA: 0.0468. As for GGCCGGCAUGGUCCCAGCCUCCUCGCUGGCGCCGGCUGGUCAACAUUCCGAGGGGACCGUCCCCCCGGUAAUGGCGAAUGGGACCCA, the figure is 0.7; as for GGCCGGCAUGGUCCCAGCCUCCUCGCUGGCGCCGGCUGGGCAACAUACCGAGGGGACCGUCCCCUCGGUAAUGGCGAAGGGGACCCA, 0.895. For GGCCGGCUUUGUCCCAGCCUCCUCGCUGGCGCCGGCUGGGCAACAUUCCGAGGGGACCGUCCCCUCGGUAAUGGCGAAUGGGACCCA, the self-cleavage came out at 0.341.

As to GGCCGGCAUGGUCCCAGCCUCCUCGCUGGCGCCGGCUGGGCAACAUUCCGAGGGGAACGUCCCCUCGGUAAUGGCGAAUGUGACCCA, the self-cleavage is 0.397.

Values taken from the RNAGym collection of RNA variant scans (doi:10.7554/elife.80360).
